The target in one assay is T1, human Dectin-1 isoform A (human, UniProt Q9BXN2 1-247).
T1 construct: also called hDectin-1a; Dectin-1 on HEK-Blue hDectin-1a cells
T1 sequence: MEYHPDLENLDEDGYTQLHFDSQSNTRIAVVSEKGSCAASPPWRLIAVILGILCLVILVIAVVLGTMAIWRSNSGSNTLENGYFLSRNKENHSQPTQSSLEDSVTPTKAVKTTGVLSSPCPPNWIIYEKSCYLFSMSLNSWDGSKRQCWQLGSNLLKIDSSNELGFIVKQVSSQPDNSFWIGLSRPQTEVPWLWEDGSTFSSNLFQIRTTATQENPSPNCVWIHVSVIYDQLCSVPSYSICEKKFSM
The assay is described as follows: flow cytometry on HEK Blue Dectin 1a cells (MFI). A general note: In flow cytometry, cells or beads pass a laser one at a time.

The target in assay [1] is T2, Trop-2 (human, UniProt P09758 27-323).
T2 construct: whole, on cells; also called Trop-2 on A431, HeLa, BxPC-3, SiHa and Capan-2 cells
T2 sequence (looked up): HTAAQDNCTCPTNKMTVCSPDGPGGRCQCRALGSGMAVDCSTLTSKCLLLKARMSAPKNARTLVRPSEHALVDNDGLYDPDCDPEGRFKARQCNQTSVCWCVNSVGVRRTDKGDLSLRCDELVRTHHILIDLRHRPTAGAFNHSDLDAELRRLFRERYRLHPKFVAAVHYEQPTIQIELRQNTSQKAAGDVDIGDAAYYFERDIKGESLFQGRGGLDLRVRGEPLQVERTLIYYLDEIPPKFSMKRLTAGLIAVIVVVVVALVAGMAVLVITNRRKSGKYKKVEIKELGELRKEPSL
The assay is described as follows: flow cytometry on A431 cells (MFI).

The target in assay [2] is T2, Trop-2. Description: flow cytometry on Capan-2 cells, AF647 goat anti-human secondary, 4PL fit; curve reaches about 1,720,000 MFI at 300 nM and starts to flatten.
For assay [3], the target named is T2, Trop-2. The assay is described as follows: flow cytometry on HeLa cells, AF647 goat anti-human secondary, 4PL fit; curve plateaus at about 145,000 MFI at 100-300 nM.
The target of assay [4] is T2, Trop-2. Description: flow cytometry on BxPC-3 cells, AF647 goat anti-human secondary, 4PL fit; curve still rising (about 3,500,000 MFI) at the highest concentration, 300 nM.
Assay [5] deals with T2, Trop-2. Description: flow cytometry on SiHa cells, AF647 goat anti-human secondary, 4PL fit; curve still rising (about 89,000 MFI) at the highest concentration, 300 nM.
For assay [6], the target named is T3, human Dectin-1 (biosensor tests of Tables 3, 4A and 9; construct not stated) (human, UniProt Q9BXN2 66-247, limits assumed).
T3 construct: also called hDectin-1
T3 sequence (looked up): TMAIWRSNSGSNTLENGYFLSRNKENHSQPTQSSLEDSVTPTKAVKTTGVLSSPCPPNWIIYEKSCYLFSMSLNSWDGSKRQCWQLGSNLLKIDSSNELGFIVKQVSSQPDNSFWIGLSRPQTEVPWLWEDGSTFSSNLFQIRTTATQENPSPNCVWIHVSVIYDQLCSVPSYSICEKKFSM
The assay is described as follows: Fab K dis, run 2.

The target of assay [7] is T3, human Dectin-1 (biosensor tests of …). The assay is described as follows: Fab K dis, run 1.
The target is the same in assay [8]. The assay is described as follows: Fab K dis, average of 3.
The target is the same in assay [9]. The assay is described as follows: Fab K dis, run 3.
For assay [10] the target is unchanged. Description: Fab K dis, run 3. The source holds these as a separate data set.
Assay [11] has the same target. The assay is described as follows: Fab K dis, run 2. This is another data set of the same source.
Assay [12] has the same target. Description: Fab K dis, average of 3. The source holds these as a separate data set.
Assay [13] shares this target. The assay is described as follows: Fab K dis, run 1. This is another data set of the same source.
The target is the same in assay [14]. The assay is described as follows: Octet, single point off rate fit. For orientation: Biolayer interferometry detects binding as a change in optical thickness at a sensor tip.
Assay [15] has the same target. Description: Octet.
For assay [16] the target is unchanged. Description: Octet response. As to X = 340: time not given here. As to X = 470: time not given here.

The record followed here is patent US20250230247A1 (DREN BIO, published 2025).

Where a chain is given by its changes, count along the chain named.

As a reminder, the EC50 is the concentration needed to bring the measured effect to its halfway point. High values mean a less potent agent, low ones a more potent agent. As usually defined, the koff is the first-order rate constant of dissociation. A higher koff goes with a short-lived complex.
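For delta in this document: Single-point dissociation rate (koff) fit for each variant binding domain, expressed as change versus the parental clone.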

B1: 2M24/Trop-2 hIgG1 bispecific antibody (bispecific antibody, V domains shown)
VH 1: QVQLVQSGAEVKKPGASVKVSCKSSGYTFTDYYIHWVRQAPGQGLEWMGWINPNSGDTNYAQKFQGRITMTRDTSISTAYLELSRLRSDDTAVFYCARNSGSYSFGYWGQGTLVTVSS
VL 1: DIQMTQSPSSVSASVGDRVTITCRASQGISSWLAWYQQKPGKAPKLLIFGASSLQSGVPSRFSGSGSGTDFTLTVSSLQPEDFATYYCQQAYSFPFTFGPGTKVDIE
VH 2: QVQLQQSGSELKKPGASVKVSCKASGYTFTNYGMNWVKQAPGQGLKWMGWINTYTGEPTYTDDFKGRFAFSLDTSVSTAYLQISSLKADDTAVYFCARGGFGSSYWYFDVWGQGSLVTVSS
VL 2: DIQLTQSPSSLSASVGDRVSITCKASQDVSIAVAWYQQKPGKAPKLLIYSASYRYTGVPDRFSGSGSGTDFTLTISSLQPEDFAVYYCQQHYITPLTFGAGTKVEIK
notes: human IgG1; also called anti-Dectin-1 (2M24)/anti-Trop-2 bispecific antibody
For B1, the EC50 with human Dectin-1 isoform A amounted to 0.958 nM; in the assay with Trop-2 [1], 9.04 nM; in the assay with Trop-2 [2] it was 59.4 nM; in the assay with Trop-2 [3], 26.2 nM; with Trop-2 [4] it was 348 nM; in the assay with Trop-2 [5] it was 77.4 nM.

B2: 2M24.116/Trop2 bispecific antibody (bispecific antibody, V domains shown)
VH 1: B1 VH 1 with S24A, I34M, S55E, G66E, L81M, F94Y, S100T, S102A
VL 1: B1 VL 1 with F49Y, S53D, V75I, Q89H, E107K
VH 2: B1 VH 2
VL 2: B1 VL 2
notes: hIgG1
On to B2, for which the EC50 is 1.76 nM with human Dectin-1 isoform A and 8.35 nM in the assay with Trop-2 [1].

B3: parental anti-Trop2 monospecific antibody (antibody, V domains shown)
VH: B1 VH 2
VL: B1 VL 2
The molecule B3 registered an EC50 with Trop-2 [1] of 5.21 nM.

B4: 2M24A.24 hFab H2 (Fab, V domains shown)
VH: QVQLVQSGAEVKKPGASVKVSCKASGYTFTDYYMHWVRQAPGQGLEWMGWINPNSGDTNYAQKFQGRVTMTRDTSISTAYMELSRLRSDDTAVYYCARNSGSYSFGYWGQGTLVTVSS
VL: B1 VL 1
notes: Fab; also called 2M24.H2
On to B4, for which the koff came out at 0.000616 s⁻¹ in assay [6], 0.00826 s⁻¹ in [7], 0.00346 s⁻¹ in assay [8] and 0.0015 s⁻¹ in [9].

B5: 2M24A.27 hFab H5 (Fab, V domains shown)
VH: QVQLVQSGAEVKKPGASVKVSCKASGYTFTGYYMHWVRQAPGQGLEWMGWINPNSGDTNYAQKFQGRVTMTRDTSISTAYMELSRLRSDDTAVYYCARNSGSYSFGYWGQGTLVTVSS
VL: B1 VL 1
notes: Fab; also called 2M24.H5
Turning to B5, the koff in assay [6] turned out to be 0.00195 s⁻¹; in assay [7], 0.00624 s⁻¹; in assay [8], 0.0038 s⁻¹; in [9] it was 0.0032 s⁻¹.

B6: 2M24A.25 hFab H3 (Fab, V domains shown)
VH: B1 VH 1 with S24A, I68V, L81M, F94Y
VL: B1 VL 1
notes: Fab; also called 2M24.H3
In the case of B6, the koff in assay [6] was determined as 0.00132 s⁻¹; in [7], 0.00765 s⁻¹; in [8], 0.0037 s⁻¹; in assay [9], 0.00214 s⁻¹.

B7: 2M24A.33 hFab L4 (Fab, V domains shown)
VH: B1 VH 1
VL: B1 VL 1 with F49Y, G50A, V75I
notes: Fab; also called 2M24.L4
On to B7, for which the koff in [10] was 0.00314 s⁻¹; in assay [11], 0.00278 s⁻¹; in [12], 0.00402 s⁻¹; in [13], 0.00615 s⁻¹.

B8: 2M24A.23 hFab H1 (Fab, V domains shown)
VH: B1 VH 1 with I68V, L81M, F94Y
VL: B1 VL 1
notes: Fab; also called 2M24.H1
Take B8: the koff in [6] stood at 0.00143 s⁻¹; in assay [7], 0.00841 s⁻¹; in assay [8], 0.00396 s⁻¹; in assay [9] it was 0.00204 s⁻¹.

B9: 2M24A.28 hFab H6 (Fab, V domains shown)
VH: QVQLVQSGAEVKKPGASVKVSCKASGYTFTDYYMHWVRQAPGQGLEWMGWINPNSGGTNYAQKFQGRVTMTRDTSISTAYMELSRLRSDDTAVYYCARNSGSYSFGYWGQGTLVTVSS
VL: B1 VL 1
notes: Fab; also called 2M24.H6
Consider B9, for which the koff in assay [6] turned out to be 0.000995 s⁻¹; in [7] it was 0.00412 s⁻¹; in assay [8], 0.00221 s⁻¹; in assay [9], 0.00151 s⁻¹.

B10: 2M24A.1.15 (Fab, V domains shown)
VH: B1 VH 1 with R98A
VL: B1 VL 1
notes: Fab; also called 2M24.1.15
B10 yielded a koff in assay [14] of 0.0239 s⁻¹. Also, in assay [15], the delta amounted to 62%. In assay [16], the “X = 290” value stood at 0.082 and the “X = 350” value came out at 0.0314.

B11: 2M24A.1.14 hFab (Fab, V domains shown)
VH: B1 VH 1 with Y103A
VL: B1 VL 1
notes: Fab; also called 2M24.1.14
Turning to B11, the koff in assay [14] came to 0.313 s⁻¹. The delta in assay [15] turned out to be 100%. For the same molecule, in assay [16], the “X = 340” value came to 0.106 and the “X = 470” value amounted to 0.

B12: 2M24A.32 hFab L3 (Fab, V domains shown)
VH: B1 VH 1
VL: B1 VL 1 with G50A, V75I
notes: Fab; also called 2M24.L3
In the case of B12, the koff in assay [10] amounted to 0.00233 s⁻¹; in assay [11], 0.00223 s⁻¹; in [12] it was 0.00376 s⁻¹; in assay [13] it was 0.00671 s⁻¹.

B13: 2M24A.30 hFab L1 (Fab, V domains shown)
VH: B1 VH 1
VL: B1 VL 1 with V75I
notes: Fab; also called 2M24.L1
Regarding B13, the koff is 0.00213 s⁻¹ in assay [10], 0.00208 s⁻¹ in [11], 0.00351 s⁻¹ in assay [12] and 0.00631 s⁻¹ in assay [13].

B14: 2M24A.31 hFab L2 (Fab, V domains shown)
VH: B1 VH 1
VL: B1 VL 1 with F49Y, V75I
notes: Fab; also called 2M24.L2
As for B14, the koff in [10] was found to be 0.00239 s⁻¹; in assay [11] it was 0.00236 s⁻¹; in assay [12] it was 0.0037 s⁻¹; in assay [13], 0.00635 s⁻¹.

B15: 2M24.119/Trop2 bispecific antibody (bispecific antibody, V domains shown)
VH 1: B1 VH 1 with S24A, I34M, S55E, Q65E, L81M, F94Y, S100T, S102A
VL 1: B1 VL 1 with F49Y, S53D, V75I, S93G, E107K
VH 2: B1 VH 2
VL 2: B1 VL 2
notes: hIgG1
With B15, the EC50 with human Dectin-1 isoform A amounted to 1.3 nM; in the assay with Trop-2 [1], 7.87 nM.

B16: 2M24A.26 hFab H4 (Fab, V domains shown)
VH: B1 VH 1 with I34M, I68V, L81M, F94Y
VL: B1 VL 1
notes: Fab; also called 2M24.H4
Consider B16, for which the koff was found to be 0.00102 s⁻¹ in assay [6], 0.0053 s⁻¹ in assay [7], 0.00264 s⁻¹ in assay [8] and 0.0016 s⁻¹ in assay [9].
